# Laboratory results from the DeepSol protein solubility set.
# Assay: soluble on expression in E. coli; label from the status in PepcDB or PDB records
row,Sequence,soluble on expression in E. coli
1,MAHHHHHHMKRVANAKHATYDMPPKGLRVRDMLEKTAQQNCNQRKRGKCRKFFFLWKMDKMGDTHLGGQANGRKNLLRSESATDEASLGGNPLKEKLKESPANWGKDKQEEQQSTDRLPLPKVGNKMPEKKPDWFHVPAPTGKKYNELKADLKKLKLHTVCEEAQCPNIGECWNIGTATIMLLGDTCTRGCKFCSIKTSSKPLPPDANEPFNTAKAICEWDINYVVLTSVDRDDLPDGGASHFAKTIELIKFSRPEILIECLVSDFQGNVDSIRKLANSGMEVYAHNIETVRRLQKFVRDRRANYEQSLWVLKTAKEINPLLYTKTSIMLGLGETKQEVLQAMADVRQNNIDVITFGQYLRPTKNHLNVVEYVSPQMFDYYKEEGMKMGFKYIASGPLVRSSYKAGEYFMKNLVEQRRGVKLHAEG,not soluble
2,MSLEKKNASTDEKGYYSNKISLEDLNKNIEDKKEQTIYFYQTSCVHCQKVSPIVVPLAKDLNVDMKVIDIENLNEPWDKYNIQGTPTIIHFKDGKEVSRISGEQSKDKFKEWFEQTKKEGHHHHHH,not soluble
3,ATGTCGTTGGCAAAAGCGTCCTTGTGGACGGCGGCCAGTACACTGGTCAAGATTGGTGCCGGGTTACTGGTCGGTAAGTTGCTGGCGGTGTCATTTGGTCCGGCGGGGCTTGGGCTGGCGGCAAATTTCCGCCAGTTGATTACCGTGCTCGGCGTGCTTGCCGGGGCTGGCATCTTTAACGGTGTAACCAAATACGTTGCCCAGTACCATGATAATCCGCAACAGCTGCGCCGCGTGGTCGGCACTTCATCAGCGATGGTACTTGGTTTCTCTACGCTGATGGCGCTGGTTTTTGTGCTGGCAGCTGCGCCAATCAGCCAGGGATTGTTTGGTAATACCGACTATCAGGGGCTGGTGCGTTTAGTGGCGCTGGTGCAAATGGGGATCGCCTGGGGCAACCTGTTACTGGCGCTGATGAAAGGCTTTCGSGATGCCGCAGGTAATGCGTTATCGCTGATTGTCGGCAGCTTGATTGGCGTTCTCGCGTACTACGTCAGTTACCGTTTGGGCGGTTATGAAGGGGCGTTGCTGGGTCTGGCGCTGATTCCCGCGCTGGTGGTAATTCCTGCCGCCATCATGTTGATCAAACGTGGTGTCATCCCGTTAAGCTATCTGAAACCCAGCTGGGATAACGGTCTGGCAGGGCAGTTGAGCAAATTTACGCTCATGGCGTTGATTACGTCGGTGACCTTGCCTGTTGCTTACATCATGATGCGTAAACTGCTGGCGGCGCAGTATAGCTGGGATGAGGTGGGGATCTGGCAAGGGGTGAGCAGTATTTCCGATGCCTACCTGCAATTTATTACGGCATCGTTCAGCGTATATTTGCTGCCCACGTTGTCGCGGCTAACGGAAAAGCGCGATATCACCCGGGAAGTGGTTAAATCGCTGAAATTCGTCTTACCGGCAGTGGCGGCGGCGAGTTTTACCGTCTGGCTGCTGCGTGATTTTGCTATCTGGCTGCTGTTGTCGAATAAATTTACCGCTATGCGCGATCTCTTTGCCTGGCAGTTAGTGGGTGATGTGTTAAAAGTGGGCGCTTATGTCTTTGGTTATCTGGTGATCGCCAAAGCGTCACTGCGGTTTTATATTCTGGCGGAAGTCAGCCAGTTCACTTTATTGATGGTATTTGCCCACTGGCTAATCCCTGCGCATGGTGCACTGGGCGCGGCGCAGGCATATATGGCAACTTATATCGTCTATTTTTCTCTTTGTTGTGGCGTGTTTTTACTCTGGCGTAGGCGGGCATGA,not soluble
4,MNKTSKAYQPLLSSKAKIAIIGGGVAGSTIALRFAELGLDTTLIEKGPSLVNGPPICHLHAGGNLYREICDEQCLTLLKQSIDTVKVYPQSVNIRPTVIALPKTDNGQPEDLLPRLEKLRAKYSELVAQDSRNKVLGEPENYFKFYSRTELDALLDLPLPKTAKNDSDWLVAFAQHVDLDSLKFPVLLVQEYGLSAFRFAAIASLAIEGLPSCHLQTNKQVIAIVQQKNSLGWQVSTQALPQHQQSPTIIHQHFDYVINACGFKSGEIDDMVSAKRKRMVEFKAAYVAHWPQCQGLWPEIVFYGERGTPQGMAQLTPYPDGYFQLHGMTQDITLFDQGLVASSLESAQPQLAKRFIEKIDKKWPEQLVHNRTLGSIEHIAQFISAFSSAEVAAKPLFGAQQIPGEDADLRAADVSFYGQHYARAEIVKASSALAAGDAILKNLVDCGLIAALELGRYLTEHYFPVSQQCSEIEVTERAIMLAKQREYPIALAKNLLEHHHHHH,soluble
5,MKRALFVAEKNDVAKGVAAILSNGTANRREGRSKFNKIYTLNTELFGQQTAISVTSVSGHMMNFQFHENMSNWQTASMVELFRAPVRHVVTPEMKLIEQTLREQAQRHDILVVWTDCDREGEAIGAEIVKVCRDSNRRLDIFRARFSEITKAAITRAARNLIRLDEKTVAAVDCRSELDLRIGSAFTRLQTLHLRNRFRDLLGQNDTSQVISYGSCQFPTLGFVTDRYKMIENFVSEPFWKLIVEHTRESHKVEFLWDRNRLFDRDTVDILHDECKETKEAHVEKVAKKPKSKWRPQALDTVELEKLGISKLRMSAKQTMQVAEKLYSKGFISYPRTETNKFPAGLNLTPLVQQQTQSNIWGDFANEVLQNGVNPRNGRKSDEAHPPIHPLKFTEKHQLQGDDWKVYELVVRHFLACVSQDAQGEETMVNLTVGTEKFHASGLRIRDMGYLKVYVYEKWGNRLLPTYTEGERFTDFELKIGDGKTQAPDFLTEADLISLMDKYGIGTDATHAEHIEKIKTREYIGVRPDGKLIPSFLGLALVDGYDDMGFAMSKPDLRANLEIGLKEICDGRRQKQEVLDEQIGKYRAIFVESERKIGVLSQSLQRYLDKNNQAGGGPGGPGGGGGPPRGPGGGGGGGPTGPPAPPKPPAKPRGRPPRKSISPAVKNGHDDPENDTIVTLSEVFGSMSNPKPARKPRAPRKSAAPKEQEEEEEVFCQCPEPMRAVTKVVQKEGPNKGKKFYTCSLPYTSSEKCNFFKWA,not soluble
6,VVSIVDTLMFDTGRAEVKPDFQKKLVEIGEILKTIDNYIRIEGHTDNTPISNSQYASNIELGSARSNNVEHLFIDVSKIPVTQMYTVSYADTRPVADNNSEAGKARNRRVDIVILNSKFNAVEQESSGK,not soluble
7,MNVPFWTEEHVRATLPERDAESHKGTYGTALLLAGSDDMPGAALLAGLGAMRSGLGKLVIGTSENVIPLIVPVLPEATYWRDGWKKAADAQLEETYRAIAIGPGLPQTESVQQAVDHVLTADCPVILDAGALAKRTYPKREGPVILTPHPGEFFRMTGVPVNELQKKRAEYAKEWAAQLQTVIVLKGNQTVIAFPDGDCWLNPTGNGALAKGGTGDTLTGMILGMLCCHEDPKHAVLNAVYLHGACAELWTDEHSAHTLLAHELSDILPRVWKRFELEHHHHHH,soluble
8,MYEAGTVEWRLTMVYLEQFRFPDAEVEFDFFLRQKRTCYDTYYPFQILSKHRFEQIDFEPVTILYGGNGTGKSTVLNIIAQKLHLLREAPFNQSSFYEDYLELCSFESAAHLPKDSRIITSDDVFDYMLNIRNLNEGIDRKREMLFEEYLDTKFAKFRMKSLDDYEQLKRVNNARRKTQSQFIRSELMDNVREYSNGESAFLYFTEKVTENALFLLDEPENSLSPAKQQELVKFIEDSARFFGCQFVIATHSPFVLAIRGAKIYDLDEEPVDVKRWTELENVRAYYDFFKKHASEF,not soluble
9,MRGDDMHIYELVSRDRTHPVRIYLLHSEYWTEDEFYNLLLEAFQRSSASDWHLQILEVSKYLVTAHGFVEAGGLQEIGFPGELSKTEVRRRINAFLGKDRSD,soluble
10,SSVNYAAGLSPYADKGICGLPETFDSPEELKTKVETLAQWIRESQYMVVHSGAGISTSTGIPDFRGPNGVWTMEERGETPHFNTTFEDARPSLTHMALLQMQRTGHLKYLISQNVDGLHVRSGFPRDRLSELHGNMFVEECEKCGKQYVRDTVVGVMGLKPTGRYCDVMRSRGLRSCRGKLISSILDWEDSLPDRDLNRADEASRRADLALTLGTSLQIKPSGDLPLLTKRTGGKLVIVNLQPTKHDKHAHLRIYGYVDDVMGQLMKLLGLDVPEWAGPTLCEDSGGDLDILPYGAWKKEVKIELKIEESNHTVSKKRKRKEQHAEEGYKNGVKVEEEMKEEGKESDSHVHTHT,soluble
11,VWVSENIERLIGYTPGEALAPGWWLSHLYPDDREQVLERQPILLSDGQLTHDYRFYHRDGRIIWILDELRLIRNADGQPHEVVGTWLDIS,not soluble
